Reference: patent US12571800B2, “Means and methods for treating angiogenesis-related diseases” (Heidelberg Biotech GmbH, priority 2011, dated 2026)
Like-named read-outs stand apart in the source and are kept apart here.

How the values were obtained:
[1] = in vivo; cited from earlier work
[2] = in vivo, cited from earlier work
Lewis Lung Cancer tumors = assay: Sequential in-vivo passaging of LLC tumors under Fc-endostatin; parameters: species or system C57/B16 mice
Protocol: Dimerization of the NC-1 endostatin domains were achieved using IgG-Fc. […] Sequential in-vivo tumor passaging was performed to achieve prolonged and continuous exposure to anti-angiogenic therapy to enrich for the resistant tumor cell population.
Murine Lewis Lung Carcinoma (LLC) tumors were implanted s.c. into C57/B16 mice. Tumors were treated with a murine oligomeric-NC1 fragment, mFc-endostatin, at doses indicated. LLC tumors were exposed in-vivo for a prolonged period to mFc-endostatin by sequential transplantation of tumors (up to four passages, p4) once they evade therapy and reach a size of approximately 1000-2000 mm^3. Control tumors were also sequentially transplanted into new mice without mFc-endostatin treatment. Tumor volume was measured by caliper measurement (FIG. 8). After four passages, both mFc-endostatin resistant as well as control tumors were excised, total RNA was isolated and after QC hybridized on genome-wide microarrays for transcriptional analysis. Microarray data were analyzed using SUMO software package. Quantitative real-time RT-PCR was performed using Taqman technology to confirm the expression of candidate genes identified by microarray analysis.

ASPC-1 xenograft = assay: Immunofluorescence distribution in ASPC-1 xenograft mice; settings: mouse, in vivo
Text: Immunohistochemistry was used to verify the distribution of Fc-endostatin in ASPC-1 xenograft mice after treatments. (A) The exogenous endostatin was detected by Alexa 488-labeled antibody (green) and vessel marker, CD31 was used and detected by Alexa 594-labeled antibody (red) in tumor, heart and kidney. (B) α-SMA, pericyte marker (red) was used to confirm the endostatin binding to tumor vessels. (C) Exogenous endostatin (green) distribution is similar to fibronectin (red) in tumor. […] (D) Endogenous collagen 18 (green) and fibronectin (red) were detected by polyclonal antibodies against endostatin and fibronectin in non-treated animal tumor. (E) Staining of Fc-endostatin and integrin α5β1. (F) Staining of vW and integrin α5β1. (G) E14.5 mouse brain embryonic sections were used to verify the distribution of fibronectin, VEGF and Fc-endostatin (Bar, 100 μm).
1.6 Immunohistochemistry. Tumors sections were rinsed by cold PBS and fixed with 4% paraformaldehyde for 10 min with before staining. Human Fc-endostatin was detected by Alexa 488 anti-human IgG. Antibodies to collagen 18 (R&D), fibronectin (R&D), integrin α5 (R&D) CD31 (BD Pharmingen, San Jose, CA) and von Willebrand Factor (Dako, Carpinteria, CA), α-SMA (Dako, Carpinteria, CA) were used for staining. The primary antibodies were detected by Alexa 488 or 594-labeled secondary antibodies (Molecular Probes, Eugene, OR). The sections were imaged by confocal-microscopy (model DM IRE2: Leica).
Immunofluorescence (IF) analysis was used to verify the systemic distribution of hFc-endostatin in an ASPC-1 xenograft animal model. […] In addition to CD31 (endothelial cell) staining, the pericyte marker, α-SMA was used to confirm the interaction of endostatin with blood vessels (FIG. 2B). To examine binding of endostatin to fibronectin, hFc-endostatin treated tumor sections of xenograft models were prepared. […] Co-localization of endogenous collagen 18 and endogenous fibronectin has also been detected (FIG. 2D). […] In addition, ex vivo E14.5 mouse brain embryonic sections were used to confirm this phenomenon. […]

HUVECs = assay: Immunofluorescence, endothelial cell surface binding; assay type: cell-based, human
Protocol: HUVECs were incubated with Fc-endostatin and detected with Alexa 488 IgG or human NC-1 (hNC-1) trimer and detected by anti-His tag monoclonal antibody.
1.5 Immunocytochemistry. HUVECs were plated and grown on cover slips. […] The slips were incubated in the blocking buffer (2% BSA PBS) for 30 min. For hFc-endostatin or hFc groups, the slides were incubated with Alexa 488 antihuman IgG for imaging. For hNC-1 or IgG groups, the slides were incubated with mouse anti-His-tag monoclonal antibody, then probed by Alexa 488 anti-mouse IgG. Anti-fibronectin antibody (R&D) was used for secondary staining for all slides and probed by Alexa 594 anti-goat IgG and imaged by confocal-microscopy. DAPI counterstaining of nuclei is shown in blue.
2.3 Binding of oligomeric hFc-endostatin and hNC-1 to HUVECs. Immunoflourescence technique was employed to detect endothelial cell surface binding of oligomeric endostatin and NC-1.

B1: Fc-endostatin: human endostatin with the Fc domain at its N-terminus, expressed in NS/0 cells (protein)
chain: HSHRDFQPVLHLVALNSPLSGGMRGIRGADFQCFQQARAVGLAGTFRAFLSSRLQDLYSIVRRADRAAVPIVNLKDELLFPSWEALFSGSEGPLKPGARIFSFDGKDVLRHPTWPQKSVWHGSDPNGRRLTESYCETWRTEAPSATGQASSLLGGRLLGQSAASCHHAYIVLCIENSFMTASK
modifications: left off: a dimerising Fc or GST
notes: human endostatin with the Fc domain at its N-terminus, expressed in NS/0 cells
smaller dose required for the same tumor reduction vs endostatin alone [1]: 50-100 fold | half-life in circulation [2]: longer half-life than endostatin | half-life in circulation ([2]; listed as endostatin fused to the Fc domain of an IgG antibody): longer than a week | tumor growth, passage 4 (P4) (Lewis Lung Cancer tumors; continuous exposure over four passages): growing even faster than non-treated control p4 tumors | tumor growth, first passage (p1) (Lewis Lung Cancer tumors; p1): strong initial inhibition of tumor growth | co-localization with fibronectin in tumor sections (ASPC-1 xenograft): co-localization with endogenous fibronection | co-localization with integrin α5β1 (ASPC-1 xenograft): co-localized with integrin α5β1 | systemic distribution (antibody to Fc) (ASPC-1 xenograft): found not only in tumor but also in heart and kidney endothelial cells | binding to HUVECs (HUVECs; cells cultured only for 24 hours): poor binding | binding to HUVECs (HUVECs; incubation time prolonged to 72 hours): significant binding
